The values that follow come from paper PMC7210950 (2020).

As usually defined, the Kd is the free concentration of one partner at which half of the binding sites on the other are occupied at equilibrium, for simple one-to-one binding.

Square brackets hold non-standard residues; d marks the D form. Ends that are not written are not given here. pY = N[C@@H](Cc1ccc(OP(=O)(O)O)cc1)C(=O)O

Assay in all cases: FP
Assay [1] has as its target Btk SH2 domain K296E (XLA mutation) (human, UniProt Q06187 271-383, K296E).
Assay [2] has as its target Btk SH2 domain K374N (XLA mutation) (human, UniProt Q06187 271-383, K374N).
For assay [3], the target named is Btk SH2 domain S371P (XLA mutation) (human, UniProt Q06187 271-383, S371P).
Assay [4] has as its target Btk SH2 domain R372G (XLA mutation) (human, UniProt Q06187 271-383, R372G).
The target in assay [5] is Btk SH2 domain H364D (XLA mutation) (human, UniProt Q06187 271-383, H364D).
The target in assay [6] is Btk SH2 domain, wild-type (recombinant) (human, UniProt Q06187 271-383).
Btk SH2 domain, wild-type (recombinant), sequence (Q06187 271-383): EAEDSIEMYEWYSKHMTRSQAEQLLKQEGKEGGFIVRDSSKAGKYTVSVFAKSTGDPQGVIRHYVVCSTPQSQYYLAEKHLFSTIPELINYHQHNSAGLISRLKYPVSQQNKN

Btk SH2 domain R372G (XLA mutation), sequence (Q06187 271-383 R372G): as the sequence (Q06187 271-383) above, with R102G counted along it
Btk SH2 domain S371P (XLA mutation), sequence (Q06187 271-383 S371P): as the sequence (Q06187 271-383) above, with S101P counted along it
Btk SH2 domain K296E (XLA mutation), sequence (Q06187 271-383 K296E): as the sequence (Q06187 271-383) above, with K26E counted along it
Btk SH2 domain K374N (XLA mutation), sequence (Q06187 271-383 K374N): as the sequence (Q06187 271-383) above, with K104N counted along it
Btk SH2 domain H364D (XLA mutation), sequence (Q06187 271-383 H364D): as the sequence (Q06187 271-383) above, with H94D counted along it

B1: FITC-labeled pY-peptide (ADNDpYIIPLPD) (peptide)
peptide: ADND[pY]IIPLPD
modifications: also: FITC label, end not given here
As for B1, the Kd in assay [1] came out at 21.8 µM; in assay [2] it was 8.7 µM; in assay [3] it was 5.7 µM; in assay [4], 5.8 µM; in assay [5], 6.9 µM; in assay [6], 7.1 µM.
